Measurements: publication PMC11497058 (2024)

Tests used:
[1] = biological target: T1, Recombinant His‐tagged GRB2 protein (human, UniProt P62993 1-217); experiment: BLI
[2] = biological target: T1, Recombinant His‐tagged GRB2 protein; experiment: BLI; GRB2 preincubated with Rg3

T1 sequence (P62993 whole entry): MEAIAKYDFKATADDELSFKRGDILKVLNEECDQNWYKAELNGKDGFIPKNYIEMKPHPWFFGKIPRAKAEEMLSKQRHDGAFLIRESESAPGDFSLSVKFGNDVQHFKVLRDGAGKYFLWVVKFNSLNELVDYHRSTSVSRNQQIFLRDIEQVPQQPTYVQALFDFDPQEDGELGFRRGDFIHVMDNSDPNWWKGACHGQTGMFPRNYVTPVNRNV

B1: Recombinant His‐tagged TRKA protein (receptor)
chain: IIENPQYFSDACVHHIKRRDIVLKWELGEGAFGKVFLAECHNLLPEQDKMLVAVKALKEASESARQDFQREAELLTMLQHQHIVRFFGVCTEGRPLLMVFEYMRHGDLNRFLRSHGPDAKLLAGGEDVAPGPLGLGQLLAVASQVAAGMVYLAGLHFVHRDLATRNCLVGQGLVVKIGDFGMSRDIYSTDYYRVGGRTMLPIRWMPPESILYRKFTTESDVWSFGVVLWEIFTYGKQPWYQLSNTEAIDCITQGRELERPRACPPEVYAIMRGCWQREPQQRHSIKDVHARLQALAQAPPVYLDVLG
modifications: biotin (EZ‐Link NHS‐PEG12‐Biotin)
With B1 as the binder, how does the Kd [1] read?
The Kd was 74.7 nM.

And the Kd [2]?
The Kd was 14 nM.
